First the molecules themselves.
B1: Chromodomain-helicase-DNA-binding protein 4, residues 365 to 417; numbered along this chain, Q14839 (parent)
chain: YETDHQDYCEVCQQGGEIILCDTCPRAYHMVCLDPDMEKAPEGKWSCPHCEKE

± gives the uncertainty stated by the source.

In the series the parent is B1. As to the kind of experiment: abundance fitness (aPCA) (normalised: wild type 0, dead -1); higher = more abundant; growth selection in yeast, the domain comes from the species named. The settings on record: Homo sapiens.
For the variant I18C, the abundance fitness was -0.216 ± 0.12.
The result for I18R reads -0.06 ± 0.086.
In the case of I18Q, the abundance fitness was -0.14 ± 0.14.
Regarding I18T, the abundance fitness is 0.221 ± 0.15.
For the variant C21W, the abundance fitness is -0.738 ± 0.14.
For the variant C21F, the abundance fitness is -1.11 ± 0.26.
For the variant C21I, the abundance fitness is -0.802 ± 0.36.
The result for C21S reads -0.889 ± 0.17; that for G16R, 0.009 ± 0.082.
The figure for G16L is -0.016 ± 0.1; for G16F it is -0.469 ± 0.26; for G16D it is 0.29 ± 0.17.
As to G16C, the abundance fitness is -0.32 ± 0.2.
The figure for G16E is 0.12 ± 0.12; for G16T it is 0.242 ± 0.12.
Consider K52M, for which the abundance fitness was -0.376 ± 0.23.
Regarding K52A, the abundance fitness was -0.233 ± 0.12.
The result for K52T reads 0.06 ± 0.16.
The result for K52N reads -0.007 ± 0.21; that for K52Q, -0.134 ± 0.18.
The figure for K52W is -0.346 ± 0.14; for K52E it is 0.136 ± 0.16.
For the variant E42T, the abundance fitness turned out to be 0.066 ± 0.17.
The result for E42M reads -0.069 ± 0.15; that for E42A, -0.178 ± 0.13.
The figure for E42Y is -0.17 ± 0.27; for E42L it is -0.087 ± 0.11; for E42F it is -0.315 ± 0.22.
The result for E42P reads 0.052 ± 0.18; that for E42S, -0.129 ± 0.13; that for Q6F, -0.606 ± 0.15.
On to Q6L, for which the abundance fitness was -0.239 ± 0.096.
Regarding Q6E, the abundance fitness was -0.306 ± 0.36.
Turning to Q6G, the abundance fitness was -0.384 ± 0.13.
The result for Q6V reads -0.347 ± 0.095.
Turning to A27D, the abundance fitness was -0.545 ± 0.2.
The result for A27C reads -0.02 ± 0.2; that for A27P, -0.262 ± 0.17; that for A27Q, -0.424 ± 0.16.
Regarding A27W, the abundance fitness was -0.257 ± 0.13.
With A27L, the abundance fitness is -0.15 ± 0.094.
The figure for A27H is -0.276 ± 0.18.
The result for A27Y reads 0.086 ± 0.15; that for A27G, -0.162 ± 0.099; that for K44F, -0.028 ± 0.16.
On to K44E, for which the abundance fitness came to 0.079 ± 0.14.
In the case of K44W, the abundance fitness is 0.098 ± 0.12.
The figure for K44N is -0.373 ± 0.29.
The result for K44H reads -0.3 ± 0.21.
The result for K44P reads 0.062 ± 0.14.
Turning to K44L, the abundance fitness is -0.145 ± 0.1.
Take K44C: the abundance fitness is -0.152 ± 0.14.
In the case of E38M, the abundance fitness is -0.784 ± 0.21.
Regarding E38L, the abundance fitness is -0.197 ± 0.11.
The figure for E38G is -0.056 ± 0.082; for E38Q it is -0.19 ± 0.2.
On to E38I, for which the abundance fitness was -0.106 ± 0.18.
Take C50D: the abundance fitness is -0.17 ± 0.16.
The result for C50L reads -0.517 ± 0.14; that for C50T, -0.624 ± 0.2; that for C50Q, -0.767 ± 0.24.
Take C50A: the abundance fitness was -0.271 ± 0.13.
The result for C50M reads -0.819 ± 0.22.
Take C50Y: the abundance fitness is -0.679 ± 0.15.
For C47Y, the abundance fitness is -0.811 ± 0.22.
For the variant C47F, the abundance fitness was -0.565 ± 0.24.
The figure for C47H is -0.477 ± 0.33; for C47A it is -0.756 ± 0.12; for C47P it is -0.657 ± 0.17.
As to W45E, the abundance fitness was 0.083 ± 0.16.
The result for W45F reads -0.159 ± 0.15; that for W45K, -0.483 ± 0.27.
The result for W45P reads -0.161 ± 0.22.
For W45C, the abundance fitness is -0.101 ± 0.13.
The result for W45G reads 0.025 ± 0.085; that for W45M, 0.179 ± 0.15.
The figure for K39R is -0.082 ± 0.093; for K39E it is -0.077 ± 0.13; for K39V it is 0.1 ± 0.11.
The result for K39P reads -0.094 ± 0.15; that for K39M, 0.115 ± 0.16; that for K39H, -0.237 ± 0.28.
As to K39N, the abundance fitness is -0.264 ± 0.23.
The result for Q13M reads 0.156 ± 0.15; that for Q13L, -0.091 ± 0.11; that for Q13D, 0.12 ± 0.33.
The figure for Q13I is -0.208 ± 0.24.
On to Q13S, for which the abundance fitness worked out at 0.008 ± 0.11.
Take E51Q: the abundance fitness was -0.371 ± 0.2.
For the variant E51D, the abundance fitness was -0.111 ± 0.28.
The result for E51G reads 0.132 ± 0.091; that for E53W, 0.113 ± 0.22; that for E53G, -0.252 ± 0.13.
The result for E53D reads -0.551 ± 0.45; that for E53N, -0.57 ± 0.38; that for I19L, -0.145 ± 0.11.
Regarding I19S, the abundance fitness is -0.143 ± 0.13.
The figure for I19G is -0.137 ± 0.079.
As to I19A, the abundance fitness came to 0.085 ± 0.097.
The result for I19R reads 0.022 ± 0.094; that for I19C, -0.25 ± 0.19.
The result for I19Y reads -0.629 ± 0.41.
The figure for H49R is -0.044 ± 0.12.
With H49D, the abundance fitness was -0.241 ± 0.15.
The figure for H49L is -0.213 ± 0.13; for H49E it is -0.247 ± 0.12; for H49V it is -0.185 ± 0.099.
As to H49N, the abundance fitness is -0.381 ± 0.23.
The result for H49S reads -0.202 ± 0.11; that for H49I, -0.109 ± 0.17.
The result for H49C reads 0.348 ± 0.19; that for H49Y, -0.169 ± 0.18; that for L33K, -0.103 ± 0.14.
For the variant L33P, the abundance fitness was -0.404 ± 0.17.
For the variant L33D, the abundance fitness was -1.04 ± 0.24.
The figure for L33M is -0.084 ± 0.16; for L33W it is 0.024 ± 0.11.
Consider M37L, for which the abundance fitness is -0.059 ± 0.11.
The figure for M37V is 0.076 ± 0.094; for M37G it is -0.199 ± 0.1; for M37H it is -0.217 ± 0.22.
Turning to M37C, the abundance fitness was 0.34 ± 0.18.
For M37D, the abundance fitness was -0.451 ± 0.23.
The result for M37I reads -0.023 ± 0.19.
The result for M37P reads 0.026 ± 0.11.
The result for M37W reads 0.079 ± 0.12; that for M37K, -0.242 ± 0.24.
Turning to M30K, the abundance fitness was determined as 0.115 ± 0.18.
As for M30T, the abundance fitness stood at 0.077 ± 0.16.
The figure for M30H is -0.433 ± 0.2; for M30A it is -0.064 ± 0.1; for M30Q it is -0.287 ± 0.17.
For the variant M30R, the abundance fitness was -0.266 ± 0.099.
Consider H29W, for which the abundance fitness was -0.999 ± 0.12.
The result for H29A reads -0.967 ± 0.13; that for H29E, -0.951 ± 0.15; that for H29V, -1.15 ± 0.11.
The result for H29L reads -1.04 ± 0.14; that for H29P, -1.1 ± 0.21; that for H29I, -1.17 ± 0.24.
The result for H29D reads -0.306 ± 0.19.
Consider C9G, for which the abundance fitness is -0.825 ± 0.094.
The figure for C9P is -0.712 ± 0.16; for C9L it is -0.717 ± 0.096; for C9F it is -1.09 ± 0.21.
The result for C9H reads -0.739 ± 0.22; that for C9M, -0.562 ± 0.14; that for C9I, -0.868 ± 0.17.
Regarding C9Q, the abundance fitness was -0.845 ± 0.14.
The figure for L20W is -0.146 ± 0.12; for L20E it is 0.01 ± 0.12; for L20R it is 0.113 ± 0.089.
Turning to L20D, the abundance fitness turned out to be 0.178 ± 0.12.
The figure for L20A is 0.08 ± 0.1; for G15D it is 0.176 ± 0.14; for G15E it is -0.162 ± 0.12.
As to G15L, the abundance fitness was -0.052 ± 0.12.
The result for G15I reads -0.664 ± 0.33; that for G15F, -0.178 ± 0.21; that for G15W, -0.216 ± 0.14.
For the variant T23A, the abundance fitness is -0.459 ± 0.13.
As for T23G, the abundance fitness is -0.189 ± 0.098.
The figure for T23R is -0.363 ± 0.11; for T23C it is -0.257 ± 0.13.
The result for T23S reads 0.033 ± 0.12.
As to T23D, the abundance fitness is -0.052 ± 0.14.
The result for T23K reads -0.219 ± 0.2.

The record behind these values is the Human Domainome abundance scans (Beltran et al. 2025).
